The results in this text go back to article PMC10783487.

The target in data set [1] is T1, TbrCan2 E341A (Thermoanaerobacter brockii subsp. …, UniProt E8URK0 1-437, E341A).
T1 sequence: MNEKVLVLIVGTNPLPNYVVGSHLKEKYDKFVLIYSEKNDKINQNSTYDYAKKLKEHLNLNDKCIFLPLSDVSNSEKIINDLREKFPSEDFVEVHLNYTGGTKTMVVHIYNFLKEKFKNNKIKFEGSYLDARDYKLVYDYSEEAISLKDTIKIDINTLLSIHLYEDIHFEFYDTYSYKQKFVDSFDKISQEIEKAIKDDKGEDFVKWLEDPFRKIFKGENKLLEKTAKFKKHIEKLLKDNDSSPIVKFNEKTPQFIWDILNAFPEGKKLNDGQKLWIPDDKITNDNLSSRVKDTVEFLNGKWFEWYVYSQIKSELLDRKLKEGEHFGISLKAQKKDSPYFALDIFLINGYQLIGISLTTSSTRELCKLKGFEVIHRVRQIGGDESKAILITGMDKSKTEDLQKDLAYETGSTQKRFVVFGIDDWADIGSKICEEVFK
Description: EMSA.

The target in data set [2] is T1, TbrCan2 E341A. In words: crystal structure 2.3 A.
Data set [3] addresses T2, TbrCan2 E364R (Thermoanaerobacter brockii subsp. …, UniProt E8URK0 1-437, E364R).
T2 sequence: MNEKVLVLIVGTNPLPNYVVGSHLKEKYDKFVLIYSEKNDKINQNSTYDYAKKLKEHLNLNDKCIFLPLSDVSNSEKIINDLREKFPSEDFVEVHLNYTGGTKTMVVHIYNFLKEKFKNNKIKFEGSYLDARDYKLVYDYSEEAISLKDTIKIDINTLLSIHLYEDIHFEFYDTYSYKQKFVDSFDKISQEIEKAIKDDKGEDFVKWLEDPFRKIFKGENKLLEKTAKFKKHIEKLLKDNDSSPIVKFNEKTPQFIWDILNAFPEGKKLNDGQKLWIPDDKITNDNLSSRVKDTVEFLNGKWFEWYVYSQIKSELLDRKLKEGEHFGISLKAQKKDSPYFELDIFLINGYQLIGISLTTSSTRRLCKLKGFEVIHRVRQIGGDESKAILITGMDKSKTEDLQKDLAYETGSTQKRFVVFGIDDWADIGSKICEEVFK
In words: crystal structure.

Data set [4] has as its target T1, TbrCan2 E341A. In words: crystal structure 2.4 A.
Data set [5] concerns the target T1, TbrCan2 E341A. In words: crystal structure 2.0 A.

B1: U7-G3-U20 RNA (rKJ10) (ssRNA)
RNA: UUUUUUUGGGUUUUUUUUUUUUUUUUUUUU
As to B1, the binding result in data set [1] was “no binding”.

B2: dC6 (ssDNA)
DNA: CCCCCC
Take B2: in data set [2], the binding result is reported as “binds”.

B3: T7-G3-T20 DNA (dKJ72) (ssDNA)
DNA: TTTTTTTGGGTTTTTTTTTTTTTTTTTTTT
B3: in data set [1], the binding result is on record as “no binding”.

B4: dT15 (dKJ62) (ssDNA)
DNA: TTTTTTTTTTTTTTT
For the molecule B4, the binding result in data set [1] was “no binding”.

B5: dT6 (dKJ46) (ssDNA)
DNA: TTTTTT
As to B5, in data set [3], the binding result is listed as “binds”.

B6: TTTAAA (dKJ44) (ssDNA)
DNA: TTTAAA
With B6, in data set [4], the binding result is given as “binds”.

B7: rA15 (ssRNA)
RNA: AAAAAAAAAAAAAAA
In the case of B7, the binding result in data set [1] was “binds”.

B8: rU15 (ssRNA)
RNA: UUUUUUUUUUUUUUU
With B8, the binding result in data set [1] is given as “no binding”.

B9: dA6 (dKJ42) (ssDNA)
DNA: AAAAAA
With B9, the binding result in data set [5] was “binds”.
